Measurements as given in patent US20030077679.

T1: human EID-1 with an N-terminal V5-HIS6 tag (in p423CDN)
T1 chain: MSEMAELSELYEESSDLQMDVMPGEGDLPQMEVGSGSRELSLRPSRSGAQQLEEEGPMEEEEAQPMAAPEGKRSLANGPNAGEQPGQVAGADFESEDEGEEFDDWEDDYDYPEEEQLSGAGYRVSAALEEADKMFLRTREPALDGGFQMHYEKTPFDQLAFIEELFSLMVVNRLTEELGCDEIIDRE

T2: human EID-1 (SEQ ID NO:4) expressed in E. coli as an N-terminal HIS6 fusion
T2 chain: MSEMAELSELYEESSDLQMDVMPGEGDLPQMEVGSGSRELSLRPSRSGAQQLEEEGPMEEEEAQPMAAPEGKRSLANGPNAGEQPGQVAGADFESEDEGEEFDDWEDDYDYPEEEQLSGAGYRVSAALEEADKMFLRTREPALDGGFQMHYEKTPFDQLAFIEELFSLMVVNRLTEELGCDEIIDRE


Assays:
[1] = molecular target: T1, human EID-1 with an N-terminal V5-HIS6 …
[2] = molecular target: T2, human EID-1 (SEQ ID NO:4) expressed in …

Protein | in vitro kinase assay with gamma-33P-ATP, radioactive band on Phosphorimager [1] | in vitro kinase assay with 33P-ATP, then LC-ES MS/MS of the Asp-N digest [2]
human DYRK3 catalytic domain (amino acids 142-526 of SEQ ID NO:2) with an N-terminal GST-tag and C-terminal HIS6-tag (protein) PEQALKQYKHHLTAYEKLEIINYPEIYFVGPNAKKRHGVIGGPNNGGYDDADGAYIHVPRDHLAYRYEVLKIIGKGSFGQVARVYDHKLRQYVALKMVRNEKRFHRQAAEEIRILEHLKKQDKTGSMNVIHMLESFTFRNHVCMAFELLSIDLYELIKKNKFQGFSVQLVRKFAQSILQSLDALHKNKIIHCDLKPENILLKHHGRSSTKVIDFGSSCFEYQKLYTYIQSRFYRAPEIILGSRYSTPIDIWSFGCILAELLTGQPLFPGEDEGDQLACMMELLGMPPPKLLEQSKRAKYFINSKGIPRYCSVTTQADGRVVLVGGRSRRGKKRGPPGSKDWGTALKGCDDYLFIEFLKRCLHWDPSARLTPAQALRHPWISKSVP | There is a radioactive band that migrates at the same position as the EID-1 protein in the western blot while this band is absent in the vector alone lane | 
recombinant hDYRK3 (SEQ ID NO: 2) as used in Example 4 (protein) MGGTARGPGRKDAGPPGAGLPPQQRRLGDGVDTFMMIDETKCPPCSNVLCNPSEPPPPRRLNMTTEQFTGDHTQHFLDGGEMKVEQLFQEFGNRKSNTIQSDGISDSEKCSPTVSQGKSSDCLNTVKSNSSSKAPKVVPLTPEQALKQYKHHLTAYEKLEIINYPEIYFVGPNAKKRHGVIGGPNNGGYDDADGAYIHVPRDHLAYRYEVLKIIGKGSFGQVARVYDHKLRQYVALKMVRNEKRFHRQAAEEIRILEHLKKQDKTGSMNVIHMLESFTFRNHVCMAFELLSIDLYELIKKNKFQGFSVQLVRKFAQSILQSLDALHKNKIIHCDLKPENILLKHHGRSSTKVIDFGSSCFEYQKLYTYIQSRFYRAPEIILGSRYSTPIDIWSFGCILAELLTGQPLFPGEDEGDQLACMMELLGMPPPKLLEQSKRAKYFINSKGIPRYCSVTTQADGRVVLVGGRSRRGKKRGPPGSKDWGTALKGCDDYLFIEFLKRCLHWDPSARLTPAQALRHPWISKSVPRPLTTIDKVSGKRVVNPASAFQGLGSKLPPVVGIANKLKANLMSETNGSIPLCSVLPKLIS |  | there was a radioactive band that migrated at the same position as the EID-1 protein following electrophoresis
human DYRK2 (SEQ ID NO:6) with an N-terminal HIS6-tag (protein) MNDHLHVGSHAHGQIQVQQLFEDNSNKRTVLTTQPNGLTTVGKTGLPVVPERQLDSIHRRQGSSTSLKSMEGMGKVKATPMTPEQAMKQYMQKLTAFEHHEIFSYPEIYFLGLNAKKRQGMTGGPNNGGYDDDQGSYVQVPHDHVAYRYEVLKVIGKGSFGQVVKAYDHKVHQHVALKMVRNEKRFHRQAAEEIRILEHLRKQDKDNTMNVIHMLENFTFRNHICMTFELLSMNLYELIKKNKFQGFSLPLVRKFAHSILQCLDALHKNRIIHCDLKPENILLKQQGRSGIKVIDFGSSCYEHQRVYTYIQSRFYRAPEVILGARYGMPIDMWSLGCILAELLTGYPLLPGEDEGDQLACMIELLGMPSQKLLDASKRAKNFVSSKGYPRYCTVTTLSDGSVVLNGGRSRRGKLRGPPESREWGNALKGCDDPLFLDFLKQCLEWDPAVRMTPGQALRHPWLRRRLPKPPTGEKTSVKRITESTGAITSISKLPPPSSSASKLRTNLAQMTDANGNIQQRTVLPKLVS | There is a radioactive band that migrates at the same position as the EID-1 protein in the western blot while this band is absent in the vector alone lane | 
